Source: PMC8927117, “Structural Insight into the MCM double hexamer activation by Dbf4-Cdc7 kinase” (Nature Communications, 2022)
Values joined by “and” are separate entries in the source; they are usually repeats but may differ in a detail not shown here. Equal entries are not always repeated.

B1: Dbf4 (subunit of the full-length DDK) (natural protein, budding yeast, UniProt P32325 1-704, looked up)
chain: MVSPTKMIIRSPLKETDTNLKHNNGIAASTTAAGHLNVFSNDNNCNNNNTTESFPKKRSLERLELQQQQHLHEKKRARIERARSIEGAVQVSKGTGLKNVEPRVTPKELLEWQTNWKKIMKRDSRIYFDITDDVEMNTYNKSKMDKRRDLLKRGFLTLGAQITQFFDTTVTIVITRRSVENIYLLKDTDILSRAKKNYMKVWSYEKAARFLKNLDVDLDHLSKTKSASLAAPTLSNLLHNEKLYGPTDRDPRTKRDDIHYFKYPHVYLYDLWQTWAPIITLEWKPQELTNLDELPYPILKIGSFGRCPFIGDRNYDESSYKRVVKRYSRDKANKKYALQLRALFQYHADTLLNTSSVNDQTKNLIFIPHTCNDSTKSFKKWMQEKAKNFEKTELKKTDDSAVQDVRNEHADQTDEKNSILLNETETKEPPLKEEKENKQSIAEESNKYPQRKELAATPKLNHPVLATFARQETEEVPDDLCTLKTKSRQAFEIKASGAHQSNDVATSFGNGLGPTRASVMSKNMKSLSRLMVDRKLGVKQTNGNNKNYTATIATTAETSKENRHRLDFNALKKDEAPSKETGKDSAVHLETNRKPQNFPKVATKSVSADSKVHNDIKITTTESPTASKKSTSTNVTLHFNAQTAQTAQPVKKETVKNSGYCENCRVKYESLEQHIVSEKHLSFAENDLNFEAIDSLIENLRFQI
notes: Dbf4, budding yeast, 704 residues; Stood in the assay as part of the DDK heterodimer
B2: Dbf4-dependent kinase Cdc7 (DDK), full-length Cdc7-Dbf4 heterodimer (complex, budding yeast)
chain 1: B1 chain
chain 2: MTSKTKNIDDIPPEIKEEMIQLYHDLPGIENEYKLIDKIGEGTFSSVYKAKDITGKITKKFASHFWNYGSNYVALKKIYVTSSPQRIYNELNLLYIMTGSSRVAPLCDAKRVRDQVIAVLPYYPHEEFRTFYRDLPIKGIKKYIWELLRALKFVHSKGIIHRDIKPTNFLFNLELGRGVLVDFGLAEAQMDYKSMISSQNDYDNYANTNHDGGYSMRNHEQFCPCIMRNQYSPNSHNQTPPMVTIQNGKVVHLNNVNGVDLTKGYPKNETRRIKRANRAGTRGFRAPEVLMKCGAQSTKIDIWSVGVILLSLLGRRFPMFQSLDDADSLLELCTIFGWKELRKCAALHGLGFEASGLIWDKPNGYSNGLKEFVYDLLNKECTIGTFPEYSVAFETFGFLQQELHDRMSIEPQLPDPKTNMDAVDAYELKKYQEEIWSDHYWCFQVLEQCFEMDPQKRSSAEDLLKTPFFNELNENTYLLDGESTDEDDVVSSSEADLLDKDVLLISE
notes: Dbf4, budding yeast, 704 residues; Cdc7, budding yeast; Treated with lambda phosphatase during purification; also called Dbf4-Cdc7 kinase complex; WT DDK
B3: Cdc7 (subunit of the full-length DDK) (enzyme, budding yeast, UniProt P06243 1-507, looked up)
chain: B2 chain 2
notes: Cdc7, budding yeast; Stood in the assay as part of the DDK heterodimer; also called kinase core

Assays:
Assay in all cases: cryo-EM structure; DDK-DH mixture (ATP-γ-S) mildly crosslinked by Grafix: 20-40% glycerol gradient with 0-0.025% glutaraldehyde, 150 mM KOAc, pH 7.6, 4 °C; States I-IV and Groups I-VI by focused 3D classification
Settings in all cases: both partners purified
[1] = molecular target: T1, Mcm2 (subunit of the MCM double hexamer) (budding yeast (endogenous in W303), UniProt P29469 1-868)
T1 construct: Mcm2, budding yeast, endogenous protein from its genomic locus; Stood in the assay as a subunit of the DH; source: endogenous, G1 chromatin of budding yeast (W303), purified as part of the DH
T1 sequence (looked up): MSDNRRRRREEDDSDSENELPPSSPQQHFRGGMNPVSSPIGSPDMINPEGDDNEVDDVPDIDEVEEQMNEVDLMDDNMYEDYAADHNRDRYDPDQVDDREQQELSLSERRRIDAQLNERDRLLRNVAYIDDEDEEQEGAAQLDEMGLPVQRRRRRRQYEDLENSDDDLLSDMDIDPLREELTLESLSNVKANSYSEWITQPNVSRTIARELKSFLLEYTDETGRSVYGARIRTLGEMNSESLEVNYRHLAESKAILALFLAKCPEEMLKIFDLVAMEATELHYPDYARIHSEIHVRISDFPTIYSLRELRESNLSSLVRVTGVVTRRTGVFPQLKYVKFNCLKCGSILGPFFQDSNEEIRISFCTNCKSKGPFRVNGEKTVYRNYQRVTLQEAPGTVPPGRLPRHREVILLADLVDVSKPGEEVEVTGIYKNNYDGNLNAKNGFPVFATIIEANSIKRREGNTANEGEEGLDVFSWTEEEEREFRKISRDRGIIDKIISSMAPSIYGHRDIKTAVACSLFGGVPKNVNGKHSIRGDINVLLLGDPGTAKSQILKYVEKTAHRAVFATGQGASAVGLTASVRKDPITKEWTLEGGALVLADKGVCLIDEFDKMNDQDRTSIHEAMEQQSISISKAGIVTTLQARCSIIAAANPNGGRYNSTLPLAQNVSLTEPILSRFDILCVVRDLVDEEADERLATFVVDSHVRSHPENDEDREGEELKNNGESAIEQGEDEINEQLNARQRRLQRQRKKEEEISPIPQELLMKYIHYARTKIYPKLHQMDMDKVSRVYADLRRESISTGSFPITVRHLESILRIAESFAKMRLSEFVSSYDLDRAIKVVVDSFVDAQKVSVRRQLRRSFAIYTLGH

[2] = molecular target: T2, Mcm6 (subunit of the MCM double hexamer) (budding yeast (endogenous in W303), UniProt P53091 1-1017)
T2 construct: Mcm6, budding yeast, endogenous protein from its genomic locus; Stood in the assay as a subunit of the DH; source: endogenous, G1 chromatin of budding yeast (W303), purified as part of the DH

[3] = molecular target: T3, Mcm4 (subunit of the MCM double hexamer) (budding yeast (endogenous in W303), UniProt P30665 1-933)
T3 construct: Mcm4, budding yeast, endogenous protein from its genomic locus; Stood in the assay as a subunit of the DH; source: endogenous, G1 chromatin of budding yeast (W303), purified as part of the DH
T3 sequence (looked up): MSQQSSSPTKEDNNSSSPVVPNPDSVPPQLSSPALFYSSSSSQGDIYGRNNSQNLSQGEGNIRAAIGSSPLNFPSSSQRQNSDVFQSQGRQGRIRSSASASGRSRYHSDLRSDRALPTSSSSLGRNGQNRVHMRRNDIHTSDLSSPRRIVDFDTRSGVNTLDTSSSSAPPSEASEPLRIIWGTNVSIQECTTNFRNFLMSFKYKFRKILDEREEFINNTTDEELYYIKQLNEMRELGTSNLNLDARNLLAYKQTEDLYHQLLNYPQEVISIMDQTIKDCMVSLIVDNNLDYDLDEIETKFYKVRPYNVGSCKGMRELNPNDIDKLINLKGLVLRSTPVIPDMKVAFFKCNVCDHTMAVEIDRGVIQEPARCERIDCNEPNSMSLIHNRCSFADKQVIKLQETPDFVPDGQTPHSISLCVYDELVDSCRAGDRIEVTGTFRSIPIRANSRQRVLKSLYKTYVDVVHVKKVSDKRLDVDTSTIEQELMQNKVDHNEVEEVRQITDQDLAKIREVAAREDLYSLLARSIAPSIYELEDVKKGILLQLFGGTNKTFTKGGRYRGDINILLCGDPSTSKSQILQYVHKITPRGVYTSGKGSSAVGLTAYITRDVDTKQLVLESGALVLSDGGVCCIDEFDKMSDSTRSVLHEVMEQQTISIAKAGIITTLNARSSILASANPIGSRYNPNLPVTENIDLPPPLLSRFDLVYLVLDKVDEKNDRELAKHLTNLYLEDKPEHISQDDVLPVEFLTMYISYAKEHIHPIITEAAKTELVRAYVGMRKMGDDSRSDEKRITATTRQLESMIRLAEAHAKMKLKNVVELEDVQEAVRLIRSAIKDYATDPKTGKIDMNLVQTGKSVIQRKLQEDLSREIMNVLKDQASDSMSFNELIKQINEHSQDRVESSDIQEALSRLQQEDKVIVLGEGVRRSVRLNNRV

[4] = molecular target: T4, MCM double hexamer (Mcm2-7 double hexamer), endogenous, wild type (budding yeast (endogenous in W303), UniProt P29469 1-868; P24279 1-971; P30665 1-933; P29496 1-775; P53091 1-1017; P38132 …)
T4 construct: Mcm2, budding yeast, endogenous protein from its genomic locus; Mcm3, budding yeast, endogenous protein from its genomic locus; Mcm4, budding yeast, endogenous protein from its genomic locus; Mcm5, budding yeast, endogenous protein from its genomic locus; Mcm6, budding yeast, endogenous protein from its genomic locus; Mcm7, budding yeast, endogenous protein from its genomic locus; Either …

[5] = molecular target: B1

T4 sequence (P24279 whole entry, chain 2 of 4): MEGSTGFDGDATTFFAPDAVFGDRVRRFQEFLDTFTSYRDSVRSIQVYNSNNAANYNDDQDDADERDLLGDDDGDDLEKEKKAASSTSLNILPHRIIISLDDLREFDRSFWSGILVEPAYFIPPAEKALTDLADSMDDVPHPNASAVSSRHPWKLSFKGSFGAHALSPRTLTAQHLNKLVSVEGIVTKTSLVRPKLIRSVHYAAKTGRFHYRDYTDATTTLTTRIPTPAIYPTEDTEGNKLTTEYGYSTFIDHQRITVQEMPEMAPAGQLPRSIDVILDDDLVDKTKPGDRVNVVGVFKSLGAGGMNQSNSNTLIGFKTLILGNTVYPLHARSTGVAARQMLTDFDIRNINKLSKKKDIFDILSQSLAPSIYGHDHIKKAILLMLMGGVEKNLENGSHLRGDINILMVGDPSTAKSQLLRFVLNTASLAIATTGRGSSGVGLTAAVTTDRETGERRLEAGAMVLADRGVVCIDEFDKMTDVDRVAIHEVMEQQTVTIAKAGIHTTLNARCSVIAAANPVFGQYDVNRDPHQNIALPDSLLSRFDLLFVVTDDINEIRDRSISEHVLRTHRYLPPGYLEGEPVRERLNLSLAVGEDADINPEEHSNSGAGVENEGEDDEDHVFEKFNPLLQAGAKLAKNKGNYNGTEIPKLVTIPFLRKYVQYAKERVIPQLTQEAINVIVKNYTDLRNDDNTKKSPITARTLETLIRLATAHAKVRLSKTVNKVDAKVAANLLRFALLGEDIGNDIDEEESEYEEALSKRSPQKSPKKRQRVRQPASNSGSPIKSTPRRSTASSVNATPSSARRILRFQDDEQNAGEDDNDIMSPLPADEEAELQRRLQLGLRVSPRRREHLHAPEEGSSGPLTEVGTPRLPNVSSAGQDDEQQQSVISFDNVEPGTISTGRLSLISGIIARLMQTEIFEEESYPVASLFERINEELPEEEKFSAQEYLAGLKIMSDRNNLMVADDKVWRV
T4 sequence (P29496 whole entry, chain 4 of 4): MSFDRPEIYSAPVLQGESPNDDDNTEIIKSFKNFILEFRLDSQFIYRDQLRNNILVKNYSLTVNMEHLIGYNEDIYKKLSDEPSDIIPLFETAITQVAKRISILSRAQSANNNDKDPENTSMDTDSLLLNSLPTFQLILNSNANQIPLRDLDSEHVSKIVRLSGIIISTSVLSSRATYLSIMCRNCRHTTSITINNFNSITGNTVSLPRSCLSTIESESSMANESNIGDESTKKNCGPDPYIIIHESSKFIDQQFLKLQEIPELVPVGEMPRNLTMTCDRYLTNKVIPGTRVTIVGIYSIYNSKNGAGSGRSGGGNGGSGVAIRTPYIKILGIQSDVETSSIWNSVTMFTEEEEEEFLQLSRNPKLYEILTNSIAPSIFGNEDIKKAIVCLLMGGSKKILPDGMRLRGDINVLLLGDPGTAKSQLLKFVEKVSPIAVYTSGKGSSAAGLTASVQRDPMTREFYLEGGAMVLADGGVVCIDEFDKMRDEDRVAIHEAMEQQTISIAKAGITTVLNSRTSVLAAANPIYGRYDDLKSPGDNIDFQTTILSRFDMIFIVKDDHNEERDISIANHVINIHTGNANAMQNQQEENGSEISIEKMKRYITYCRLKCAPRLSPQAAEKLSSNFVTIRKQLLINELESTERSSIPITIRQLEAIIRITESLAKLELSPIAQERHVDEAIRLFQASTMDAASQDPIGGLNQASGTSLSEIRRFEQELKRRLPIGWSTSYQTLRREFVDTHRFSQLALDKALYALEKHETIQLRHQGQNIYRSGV
T4 sequence (P53091 whole entry, chain 5 of 4): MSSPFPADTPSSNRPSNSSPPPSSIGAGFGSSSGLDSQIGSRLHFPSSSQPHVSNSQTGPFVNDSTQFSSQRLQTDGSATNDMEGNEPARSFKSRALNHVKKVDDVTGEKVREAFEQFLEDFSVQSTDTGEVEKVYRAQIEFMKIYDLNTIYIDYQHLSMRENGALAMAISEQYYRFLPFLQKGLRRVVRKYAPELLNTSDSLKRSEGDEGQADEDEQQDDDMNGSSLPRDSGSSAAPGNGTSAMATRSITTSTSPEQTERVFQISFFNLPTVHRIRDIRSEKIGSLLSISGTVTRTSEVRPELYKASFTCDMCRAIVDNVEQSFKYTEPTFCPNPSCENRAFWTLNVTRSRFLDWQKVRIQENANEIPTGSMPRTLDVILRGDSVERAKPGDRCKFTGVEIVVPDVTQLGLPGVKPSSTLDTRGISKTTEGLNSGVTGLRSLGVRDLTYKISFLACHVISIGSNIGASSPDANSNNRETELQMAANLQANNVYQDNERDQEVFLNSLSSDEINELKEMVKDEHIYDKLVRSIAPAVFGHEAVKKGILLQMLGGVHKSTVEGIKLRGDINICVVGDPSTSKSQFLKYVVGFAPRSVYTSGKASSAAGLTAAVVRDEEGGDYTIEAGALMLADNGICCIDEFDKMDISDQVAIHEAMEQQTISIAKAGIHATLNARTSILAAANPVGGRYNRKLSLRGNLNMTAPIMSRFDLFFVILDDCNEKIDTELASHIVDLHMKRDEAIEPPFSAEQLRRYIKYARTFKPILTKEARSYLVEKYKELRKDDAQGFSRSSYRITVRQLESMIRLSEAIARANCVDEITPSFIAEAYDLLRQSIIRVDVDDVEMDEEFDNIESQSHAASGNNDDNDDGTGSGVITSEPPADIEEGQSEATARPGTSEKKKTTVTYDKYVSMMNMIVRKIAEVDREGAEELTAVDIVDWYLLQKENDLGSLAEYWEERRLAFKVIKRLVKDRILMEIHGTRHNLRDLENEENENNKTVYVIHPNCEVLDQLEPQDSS
T4 sequence (P38132 whole entry, chain 6 of 4): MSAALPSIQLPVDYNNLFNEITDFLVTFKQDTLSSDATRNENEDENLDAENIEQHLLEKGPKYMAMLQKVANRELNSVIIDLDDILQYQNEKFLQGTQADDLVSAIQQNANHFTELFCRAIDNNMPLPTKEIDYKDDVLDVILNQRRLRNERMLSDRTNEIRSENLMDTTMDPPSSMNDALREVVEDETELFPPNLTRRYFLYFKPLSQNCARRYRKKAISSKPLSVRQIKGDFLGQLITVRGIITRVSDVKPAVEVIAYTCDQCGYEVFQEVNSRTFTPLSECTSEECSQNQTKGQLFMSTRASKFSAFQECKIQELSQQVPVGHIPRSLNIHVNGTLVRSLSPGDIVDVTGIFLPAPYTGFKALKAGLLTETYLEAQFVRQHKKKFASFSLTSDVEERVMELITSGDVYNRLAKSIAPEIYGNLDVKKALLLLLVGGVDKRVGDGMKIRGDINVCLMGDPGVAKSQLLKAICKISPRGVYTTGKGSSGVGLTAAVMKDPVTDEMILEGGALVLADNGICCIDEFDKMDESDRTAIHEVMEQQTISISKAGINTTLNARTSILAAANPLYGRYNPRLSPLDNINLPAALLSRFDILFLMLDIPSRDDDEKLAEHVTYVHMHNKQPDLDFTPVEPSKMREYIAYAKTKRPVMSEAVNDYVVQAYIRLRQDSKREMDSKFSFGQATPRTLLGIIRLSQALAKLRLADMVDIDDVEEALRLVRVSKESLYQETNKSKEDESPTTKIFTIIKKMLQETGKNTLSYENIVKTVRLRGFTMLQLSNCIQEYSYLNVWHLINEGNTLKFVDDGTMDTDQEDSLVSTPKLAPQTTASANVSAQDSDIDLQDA
T2 sequence (P53091 whole entry): as the sequence (P53091 whole entry, chain 5 of 4) above

B1: binds [1]; binds [2]; binds [3].

For B2, the “stoichiometry N” value [4] was 2 DDK per DH and 1 DDK per DH.

B3: binds [5].
